{
  "source": "patent US20260209293A1",
  "about": "(Novo Nordisk, published 2026)",
  "binders": {"B1": {"name": "N^1-[(4S)-4-carboxy-4-(17-carboxyheptadecanoylamino)butanoyl]-[Ala1,Ser2,His3,Leu4, Ser5, Leu7,Gln8,Glu14,His17,Pro25, Pro28,Pro29,Asp31,Glu35,Pro37], … (peptide)", "peptide": "{C18 diacid-γGlu}-ASHLSTLQTQRLAEFLHHFGPILPPTDVGSETP-NH2", "SMILES": "CC[C@H](C)[C@H](NC(=O)[C@@H]1CCCN1C(=O)CNC(=O)[C@H](Cc1ccccc1)NC(=O)[C@H](Cc1c[nH]cn1)NC(=O)[C@H](Cc1c[nH]cn1)NC(=O)[C@H](CC(C)C)NC(=O)[C@H](Cc1ccccc1)NC(=O)[C@H](CCC(=O)O)NC(=O)[C@H](C)NC(=O)[C@H](CC(C)C)NC(=O)[C@H](CCCNC(=N)N)NC(=O)[C@H](CCC(N)=O)NC(=O)[C@@H](NC(=O)[C@H](CCC(N)=O)NC(=O)[C@H](CC(C)C)NC(=O)[C@@H](NC(=O)[C@H](CO)NC(=O)[C@H](CC(C)C)NC(=O)[C@H](Cc1c[nH]cn1)NC(=O)[C@H](CO)NC(=O)[C@H](C)NC(=O)CC[C@H](NC(=O)CCCCCCCCCCCCCCCCC(=O)O)C(=O)O)[C@@H](C)O)[C@@H](C)O)C(=O)N[C@@H](CC(C)C)C(=O)N1CCC[C@H]1C(=O)N1CCC[C@H]1C(=O)N[C@H](C(=O)N[C@@H](CC(=O)O)C(=O)N[C@H](C(=O)NCC(=O)N[C@@H](CO)C(=O)N[C@@H](CCC(=O)O)C(=O)N[C@H](C(=O)N1CCC[C@H]1C(N)=O)[C@@H](C)O)C(C)C)[C@@H](C)O"}, "B2": {"name": "N^1-[(4S)-4-carboxy-4-(19-carboxynonadecanoylamino)butanoyl]-[Ala1,Ser2,His3,Leu4,Ser5,Ala7,Gln8,Ala10,Glu14,His17,Pro25,Pro28,Pro29,Asp31,Glu35,Pro37],des-(19- … (peptide)", "peptide": "{C20 diacid-γGlu}-ASHLSTAQTARLAEFLHHFGPILPPTDVGSETP-NH2", "SMILES": "CC[C@H](C)[C@H](NC(=O)[C@@H]1CCCN1C(=O)CNC(=O)[C@H](Cc1ccccc1)NC(=O)[C@H](Cc1c[nH]cn1)NC(=O)[C@H](Cc1c[nH]cn1)NC(=O)[C@H](CC(C)C)NC(=O)[C@H](Cc1ccccc1)NC(=O)[C@H](CCC(=O)O)NC(=O)[C@H](C)NC(=O)[C@H](CC(C)C)NC(=O)[C@H](CCCNC(=N)N)NC(=O)[C@H](C)NC(=O)[C@@H](NC(=O)[C@H](CCC(N)=O)NC(=O)[C@H](C)NC(=O)[C@@H](NC(=O)[C@H](CO)NC(=O)[C@H](CC(C)C)NC(=O)[C@H](Cc1c[nH]cn1)NC(=O)[C@H](CO)NC(=O)[C@H](C)NC(=O)CC[C@H](NC(=O)CCCCCCCCCCCCCCCCCCC(=O)O)C(=O)O)[C@@H](C)O)[C@@H](C)O)C(=O)N[C@@H](CC(C)C)C(=O)N1CCC[C@H]1C(=O)N1CCC[C@H]1C(=O)N[C@H](C(=O)N[C@@H](CC(=O)O)C(=O)N[C@H](C(=O)NCC(=O)N[C@@H](CO)C(=O)N[C@@H](CCC(=O)O)C(=O)N[C@H](C(=O)N1CCC[C@H]1C(N)=O)[C@@H](C)O)C(C)C)[C@@H](C)O"}, "B3": {"name": "N^1-[(4S)-4-carboxy-4-(17-carboxyheptadecanoylamino)butanoyl]-[Ala1,Ser2,His3,Leu4,Ser5,Leu7,Gln8,Glu14,His17,Asp21,Pro22,Pro27,Asp31, Pro34,Asp35, … (peptide)", "peptide": "{C18 diacid-γGlu}-ASHLSTLQTQRLAEFLHHSSDPFGAIPSSTDVGPDTP-NH2", "SMILES": "CC[C@H](C)[C@H](NC(=O)[C@H](C)NC(=O)CNC(=O)[C@H](Cc1ccccc1)NC(=O)[C@@H]1CCCN1C(=O)[C@H](CC(=O)O)NC(=O)[C@H](CO)NC(=O)[C@H](CO)NC(=O)[C@H](Cc1c[nH]cn1)NC(=O)[C@H](Cc1c[nH]cn1)NC(=O)[C@H](CC(C)C)NC(=O)[C@H](Cc1ccccc1)NC(=O)[C@H](CCC(=O)O)NC(=O)[C@H](C)NC(=O)[C@H](CC(C)C)NC(=O)[C@H](CCCNC(=N)N)NC(=O)[C@H](CCC(N)=O)NC(=O)[C@@H](NC(=O)[C@H](CCC(N)=O)NC(=O)[C@H](CC(C)C)NC(=O)[C@@H](NC(=O)[C@H](CO)NC(=O)[C@H](CC(C)C)NC(=O)[C@H](Cc1c[nH]cn1)NC(=O)[C@H](CO)NC(=O)[C@H](C)NC(=O)CC[C@H](NC(=O)CCCCCCCCCCCCCCCCC(=O)O)C(=O)O)[C@@H](C)O)[C@@H](C)O)C(=O)N1CCC[C@H]1C(=O)N[C@@H](CO)C(=O)N[C@@H](CO)C(=O)N[C@H](C(=O)N[C@@H](CC(=O)O)C(=O)N[C@H](C(=O)NCC(=O)N1CCC[C@H]1C(=O)N[C@@H](CC(=O)O)C(=O)N[C@H](C(=O)N1CCC[C@H]1C(N)=O)[C@@H](C)O)C(C)C)[C@@H](C)O"}, "B4": {"name": "N^1-[(4S)-4-carboxy-4-(17-carboxyheptadecanoylamino)butanoyl]-[Ala1,Ser2,His3,Leu4,Ser5,Leu7,Gln8,Glu14,His17,Asp21,Pro25,Pro28,Pro29,Asp31, Pro37]-human amylin (peptide)", "peptide": "{C18 diacid-γGlu}-ASHLSTLQTQRLAEFLHHSSDNFGPILPPTDVGSNTP-NH2", "SMILES": "CC[C@H](C)[C@H](NC(=O)[C@@H]1CCCN1C(=O)CNC(=O)[C@H](Cc1ccccc1)NC(=O)[C@H](CC(N)=O)NC(=O)[C@H](CC(=O)O)NC(=O)[C@H](CO)NC(=O)[C@H](CO)NC(=O)[C@H](Cc1c[nH]cn1)NC(=O)[C@H](Cc1c[nH]cn1)NC(=O)[C@H](CC(C)C)NC(=O)[C@H](Cc1ccccc1)NC(=O)[C@H](CCC(=O)O)NC(=O)[C@H](C)NC(=O)[C@H](CC(C)C)NC(=O)[C@H](CCCNC(=N)N)NC(=O)[C@H](CCC(N)=O)NC(=O)[C@@H](NC(=O)[C@H](CCC(N)=O)NC(=O)[C@H](CC(C)C)NC(=O)[C@@H](NC(=O)[C@H](CO)NC(=O)[C@H](CC(C)C)NC(=O)[C@H](Cc1c[nH]cn1)NC(=O)[C@H](CO)NC(=O)[C@H](C)NC(=O)CC[C@H](NC(=O)CCCCCCCCCCCCCCCCC(=O)O)C(=O)O)[C@@H](C)O)[C@@H](C)O)C(=O)N[C@@H](CC(C)C)C(=O)N1CCC[C@H]1C(=O)N1CCC[C@H]1C(=O)N[C@H](C(=O)N[C@@H](CC(=O)O)C(=O)N[C@H](C(=O)NCC(=O)N[C@@H](CO)C(=O)N[C@@H](CC(N)=O)C(=O)N[C@H](C(=O)N1CCC[C@H]1C(N)=O)[C@@H](C)O)C(C)C)[C@@H](C)O"}, "B5": {"name": "N^1-[(4S)-4-carboxy-4-(17-carboxyheptadecanoylamino)butanoyl]-[Ala1,Ser2,His3,Leu4,Ser5,Ala7,Gln8,Glu14,His17,Asp21,Pro22,Pro27,Asp31,Pro34,Asp35]-human amylin (peptide)", "peptide": "{C18 diacid-γGlu}-ASHLSTAQTQRLAEFLHHSSDPFGAIPSSTDVGPDTY-NH2", "SMILES": "CC[C@H](C)[C@H](NC(=O)[C@H](C)NC(=O)CNC(=O)[C@H](Cc1ccccc1)NC(=O)[C@@H]1CCCN1C(=O)[C@H](CC(=O)O)NC(=O)[C@H](CO)NC(=O)[C@H](CO)NC(=O)[C@H](Cc1c[nH]cn1)NC(=O)[C@H](Cc1c[nH]cn1)NC(=O)[C@H](CC(C)C)NC(=O)[C@H](Cc1ccccc1)NC(=O)[C@H](CCC(=O)O)NC(=O)[C@H](C)NC(=O)[C@H](CC(C)C)NC(=O)[C@H](CCCNC(=N)N)NC(=O)[C@H](CCC(N)=O)NC(=O)[C@@H](NC(=O)[C@H](CCC(N)=O)NC(=O)[C@H](C)NC(=O)[C@@H](NC(=O)[C@H](CO)NC(=O)[C@H](CC(C)C)NC(=O)[C@H](Cc1c[nH]cn1)NC(=O)[C@H](CO)NC(=O)[C@H](C)NC(=O)CC[C@H](NC(=O)CCCCCCCCCCCCCCCCC(=O)O)C(=O)O)[C@@H](C)O)[C@@H](C)O)C(=O)N1CCC[C@H]1C(=O)N[C@@H](CO)C(=O)N[C@@H](CO)C(=O)N[C@H](C(=O)N[C@@H](CC(=O)O)C(=O)N[C@H](C(=O)NCC(=O)N1CCC[C@H]1C(=O)N[C@@H](CC(=O)O)C(=O)N[C@H](C(=O)N[C@@H](Cc1ccc(O)cc1)C(N)=O)[C@@H](C)O)C(C)C)[C@@H](C)O"}},
  "key": {"[1]": {"biological_target": "T1, human calcitonin receptor (a) (human, UniProt P30988 25-474)", "T1 sequence (looked up)": "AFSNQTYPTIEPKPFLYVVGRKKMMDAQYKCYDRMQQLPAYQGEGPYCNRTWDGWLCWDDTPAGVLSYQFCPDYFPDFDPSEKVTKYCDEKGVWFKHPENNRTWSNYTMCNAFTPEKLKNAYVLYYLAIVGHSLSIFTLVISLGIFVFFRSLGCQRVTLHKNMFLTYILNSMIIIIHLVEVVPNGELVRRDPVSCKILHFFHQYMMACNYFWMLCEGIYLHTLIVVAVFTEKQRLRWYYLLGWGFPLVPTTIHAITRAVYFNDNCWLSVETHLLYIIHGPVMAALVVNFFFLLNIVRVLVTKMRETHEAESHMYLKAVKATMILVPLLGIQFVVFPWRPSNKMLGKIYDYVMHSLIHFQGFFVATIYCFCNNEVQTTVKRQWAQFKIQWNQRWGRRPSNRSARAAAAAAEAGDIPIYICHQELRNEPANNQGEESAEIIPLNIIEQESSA", "assay": "cell-based or functional assay"}, "[2]": {"biological_target": "T2, human amylin-3(a) receptor (human, UniProt P30988 25-474; O60896 24-148)", "T2 sequence (looked up) 1": "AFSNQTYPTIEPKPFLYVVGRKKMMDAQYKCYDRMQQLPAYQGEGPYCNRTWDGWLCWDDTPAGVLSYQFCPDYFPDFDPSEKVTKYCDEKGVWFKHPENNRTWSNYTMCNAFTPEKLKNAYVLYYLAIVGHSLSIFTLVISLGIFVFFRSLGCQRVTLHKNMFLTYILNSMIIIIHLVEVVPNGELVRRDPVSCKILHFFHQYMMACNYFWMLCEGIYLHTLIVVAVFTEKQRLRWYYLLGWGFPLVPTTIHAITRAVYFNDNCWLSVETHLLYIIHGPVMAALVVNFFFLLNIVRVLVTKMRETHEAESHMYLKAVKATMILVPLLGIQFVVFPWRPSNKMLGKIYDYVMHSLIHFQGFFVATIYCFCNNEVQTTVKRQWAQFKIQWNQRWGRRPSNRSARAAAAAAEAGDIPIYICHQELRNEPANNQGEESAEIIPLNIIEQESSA", "T2 sequence (looked up) 2": "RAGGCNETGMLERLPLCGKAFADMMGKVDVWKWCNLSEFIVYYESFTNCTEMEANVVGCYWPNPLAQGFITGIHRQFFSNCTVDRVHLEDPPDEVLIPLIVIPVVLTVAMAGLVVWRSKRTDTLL", "assay": "cell-based or functional assay"}},
  "note": "*1 amine or outer side, *2 acyl side, *3 side chain or, on linkers, in order; H or OH if unused. The star is where a group is joined. C20 diacid = O=C(O)CCCCCCCCCCCCCCCCCCC(=O)*; C18 diacid = O=C(O)CCCCCCCCCCCCCCCCC(=O)*; γGlu = O=C(O)[C@H](CCC(=O)[*:2])N[*:1]",
  "data": [
    {"binder": "B1", "values": [
      {"measurement": "hCalcR potency, EC50 (pM); CRE-luciferase reporter in BHK cells", "setting": "[1]", "value": 2.26, "unit": "pM"},
      {"measurement": "hAmyR3 potency, EC50 (pM); CRE-luciferase reporter in BHK cells", "setting": "[2]", "value": 1.6, "unit": "pM"}
    ]},
    {"binder": "B2", "values": [
      {"measurement": "hCalcR potency, EC50 (pM); CRE-luciferase reporter in BHK cells", "setting": "[1]", "value": 1.49, "unit": "pM"},
      {"measurement": "hAmyR3 potency, EC50 (pM); CRE-luciferase reporter in BHK cells", "setting": "[2]", "value": 1.09, "unit": "pM"}
    ]},
    {"binder": "B3", "values": [
      {"measurement": "hCalcR potency, EC50 (pM); CRE-luciferase reporter in BHK cells", "setting": "[1]", "value": 1.74, "unit": "pM"},
      {"measurement": "hAmyR3 potency, EC50 (pM); CRE-luciferase reporter in BHK cells", "setting": "[2]", "value": 1.69, "unit": "pM"}
    ]},
    {"binder": "B4", "values": [
      {"measurement": "hCalcR potency, EC50 (pM); CRE-luciferase reporter in BHK cells", "setting": "[1]", "value": 2.06, "unit": "pM"},
      {"measurement": "hAmyR3 potency, EC50 (pM); CRE-luciferase reporter in BHK cells", "setting": "[2]", "value": 1.91, "unit": "pM"}
    ]},
    {"binder": "B5", "values": [
      {"measurement": "hCalcR potency, EC50 (pM); CRE-luciferase reporter in BHK cells", "setting": "[1]", "value": 3.22, "unit": "pM"},
      {"measurement": "hAmyR3 potency, EC50 (pM); CRE-luciferase reporter in BHK cells", "setting": "[2]", "value": 2.96, "unit": "pM"}
    ]}
  ]
}
